Experimental data as given in patent publication US20210079109A1 (Regeneron, published 2021).

T1: human CD63 (human, UniProt P08962 2-238)
T1 sequence: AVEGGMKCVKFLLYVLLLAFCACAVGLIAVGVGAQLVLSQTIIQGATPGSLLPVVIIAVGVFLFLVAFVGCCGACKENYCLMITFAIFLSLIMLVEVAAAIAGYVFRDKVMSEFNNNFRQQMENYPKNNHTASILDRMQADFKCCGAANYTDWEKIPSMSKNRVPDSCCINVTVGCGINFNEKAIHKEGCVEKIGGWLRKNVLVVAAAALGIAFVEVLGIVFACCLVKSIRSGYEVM


Columns and labels:
human CD63 [1] = target: T1, human CD63; experiment: cell-based or functional assay
[2] = target: T2, recombinant human CD63 extracellular loop 2 expressed with a C-terminal Myc-Myc-hexahistidine (human); experiment: SPR Biacore, mAb captured, 25C
T2 construct: also called hCD63 EC loop 2-MMH; human CD63 EC loop 2-MMH
Outline: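 Anti-CD63 mAbs captured on anti-mouse Fc or anti-human Fab surfaces; CD63 EC2 reagents flowed in HBS-ET, pH 7.4, at 25° C or 37° C. ka and kd from 1:1 binding model with mass transport limitation; KD and t½ calculated from kinetic rates.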

human CD63 [3] = target: T1, human CD63; experiment: imaging of stained T47D cells, 10 ug/mL antibody
Protocol: To stain, quadruplicate plates of cells were incubated with 10 μg/mL of anti-CD63 antibodies that was diluted in 2% FBS in PBS, without Calcium and Magnesium (Irving, Cat #9240) (staining buffer) for 30 minutes at 4° C. […] Two plates were immediately fixed and stained with 4% paraformaldehyde (PFA; ThermoFisher, Cat #28908)+5 uM DRAQ5 (ThermoFisher, Cat #62251) in PBS for 20 minutes (non-internalization plates). The remaining two plates were incubated with growth media at 37° C. for 2 hours followed by fixation and staining for 20 minutes using a solution of 4% PFA+5 μM DRAQ5 diluted in PBS (internalization plates). After fixation, all plates were washed once with PBS. One non-internalization plate and one internalization plate were incubated with an anti-Alexa Fluor 488 antibody (Regeneron) at 50 μg/mL in PBS overnight at 4° C. to quench surface Alexa Fluor 488 fluorescence. The remaining plates were incubated with PBS only. Confocal images were acquired on the Opera Phenix (Perkin Elmer) at 40× magnification. Harmony analysis software (Perkin Elmer) was utilized to identify DRAQ5-labeled cells and the total Alexa-Fluor 488 relative fluorescent units (RFU) per cell was determined. The total binding at 4° C. (RFU values of 4° C. unquenched wells), total binding at 37° C. (RFU values of 37° C. unquenched wells), the total internalized RFU, and the % Internalization were determined for each antibody as shown in Table 1. For all calculations, background fluorescence from 2nd Ab only control wells were subtracted from every well. Total internalized RFU was calculated as follows: Total RFU of 37° C. unquenched samples−Surface RFU at 37° C. Surface RFU is defined as unquenched RFU at 37° C.−quenched RFU at 37° C.)/QE. QE (quenching efficiency) is defined as: 1−(Total RFU of 4° C. quenched sample/Total RFU of 4° C. unquenched sample). The % Internalization was determined from the following formula: (Total internalized RFU at 37° C./Total RFU at 37° C.)*100.

T2 sequence (chain, as listed by the source limits assumed): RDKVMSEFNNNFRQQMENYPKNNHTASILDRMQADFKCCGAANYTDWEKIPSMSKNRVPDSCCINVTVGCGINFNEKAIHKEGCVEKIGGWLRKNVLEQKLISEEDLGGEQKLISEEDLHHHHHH

Row | 100 nM Ag Bound (RU) [2] | Kd [2] | koff [2] | kon [2] | t1/2 [2] | Total RFU at 4C (human CD63 [3]) | Total RFU at 37C (2 h) (human CD63 [3]) | Binder | T47D (nM) IC50, indirect cytotoxicity with Fab anti-mFc-MMAF (human CD63 [1])
1 | 65 RU | 1.23 nM | 0.000279 s⁻¹ | 227000 M⁻¹ s⁻¹ | 41 min | 2.36e+06 RFU | 2.94e+06 RFU | H2M12450N (antibody, V domains shown, also called H2aM12450N; mAb12450) VH: QVQLQESGPKVVKPSETLSLTCTVSGGSISSYYWNWIRQSPGKGLEWIGYTKRGYTDYNPSLRSRVTISEDTSKNQFSLRISSVTAADTAVYYCAQMGWGSHAFDMWGQGTMVAVSS VL: EIVLTQSPGTLSLSPGERATLSCRASQSVNSRYLAWYQQKPGQAPRLLIYGASSRATGIPDRCSGSGSGTDFTLTISRLEPEDFAVYYCQQYGSSPWTFGQGTKVEIK | 0.24 nM
2 | 52 RU | 5 nM | 0.00043 s⁻¹ | 85900 M⁻¹ s⁻¹ | 27 min | 1.9e+06 RFU | 2.32e+06 RFU | H1M12451N (antibody, V domains shown) VH: QVQLQESGPGLMKPSETLSLTCTVSGGSFSSYYWNWIRQSPGKGLEWIGYIRYSGDTNYKPSLKSRFTISIDTSKNLFSLRLKSVTAADTAVYYCARMGLGSDAFDIWGQGTMVTVSS VL: EIVLTQSPGTLSLSPGERATLSCRASQSVNNNYLAWYQQKPGQAPRLLIYGVFNRATNIPDRFSGSGSGTDFTLTISRLEPEDFAVYYCQQYGSSPWTFGQGTKVEIK | 
3 | 42 RU | 11 nM | 0.00182 s⁻¹ | 166000 M⁻¹ s⁻¹ | 6 min | 1.5e+06 RFU | 1.69e+06 RFU | H2M12395N (antibody, V domains shown, also called H2aM12395N) VH: QVQLQESGPRLVKPSETLSLTCIVSGGSISNFYWNWIRQSPGKGLEWIGYFFYTGTIDYNPSLKSRVTISLDTSKNQFSLNLRLLTAADAAVYYCARMGLGANAFDIWGHGTMVTVSS VL: EIVLTQSPGTLSLSPGERATLSCRASQHVSSNYLAWYQQKPGQAPRLLIYGGSSRATGIPDRFSGSGSGTDFTLTISRLEPADFAVFYCQQYGNSPWTFGQGTKVEMK | 
